Target: the molecule itself
Assay: native gel or EMSA; HepG2.2.15 cells treated with PAC5 (10 μmol/L) for the indicated time; cell lysates on native PAGE, hnRNPA2B1-dimerization assay by immunoblot

B1: heterogeneous nuclear ribonucleoprotein A2B1 (natural protein, UniProt P22626 1-353, looked up)
chain: MEKTLETVPLERKKREKEQFRKLFIGGLSFETTEESLRNYYEQWGKLTDCVVMRDPASKRSRGFGFVTFSSMAEVDAAMAARPHSIDGRVVEPKRAVAREESGKPGAHVTVKKLFVGGIKEDTEEHHLRDYFEEYGKIDTIEIITDRQSGKKRGFGFVTFDDHDPVDKIVLQKYHTINGHNAEVRKALSRQEMQEVQSSRSGRGGNFGFGDSRGGGGNFGPGPGSNFRGGSDGYGSGRGFGDGYNGYGGGPGGGNFGGSPGYGGGRGGYGGGGPGYGNQGGGYGGGYDNYGGGNYGSGNYNDFGNYNQQPSNYGPMKSGNFGGSRNMGGPYGGGNYGPGGSGGSGGYGGRSRY
notes: heterogeneous nuclear ribonucleoprotein A2B1, endogenous in human hepatoma cell lines, precipitated and detected with anti-hnRNPA2B1 (Santa Cruz sc-32316); Endogenous protein; also called hnRNPA2B1; source: endogenous, HepG2.2.15, HepAD38 and HepG2 cell lysates
stoichiometry N: 2
